The labels stand for the following.
B1: FAS-associated death domain protein (Homo sapiens), Q13158 (parent)
chain: MDPFLVLLHSVSSSLSSSELTELKFLCLGRVGKRKLERVQSGLDLFSMLLEQNDLEPGHTELLRELLASLRRHDLLRRVDDFEAGAAAGAAPGEEDLCAAFNVICDNVGKDWRRLARQLKVSDTKIDSIEDRYPRNLTERVRESLRIWKNTEKENATVAHLVGALRSCQMNLVADLVQEVQQARDLQNRSGAMSPMSWNSDASTSEAS

The variants in the first assay derive from B1. As to conditions: with FAS.
With MDPFLVLLHSVSSSLSSSELTELKFLCLGRVGKRKLERVQSGLDLFSMLLEQNDLEPGHTELLRELLASLRRHDLLRRVDDFEAGAAAGAAPGEEDLCAAFNVICDNVGKDWRRLARQLKVSDTKIDSIEDRYPRNLTERVRESLRIWKNTEKENATVAHLVGALRSCQMNEVADLVQEVQQARDLQNRSGAMSPMSWNSDASTSEAS [L172E], the “effect of a mutation on the interaction” value is on record as “disrupting interaction”. Consider MDPFLVLLHSVSSSLSSSELTELKFLCLGRVGKRKLERVQSGLDLFSMLLEQNDLEPGHTELLRELLASLRRHDLLRRVDDFEAGAAAGAAPGEEDLCAAFNVICDNVGKDWRRLARQLKVSDTKIDSIEDRYPRNLTERVRESLRIWKNTEEENATVAHLVGALRSCQMNLVADLVQEVQQARDLQNRSGAMSPMSWNSDASTSEAS [K153E], for which the “effect of a mutation on the interaction” value is “decreasing interaction”.

Another assay covers variants of B1. As to conditions: with FAS. This is another data set of the same source.
Consider MDPFLVLLHSVSSSLSSSELTELKFLCLGRVGKRKLERVQSGLDLFSMLLEQNDLEPGHTELLRELLASLRRHDLLRRVDDFEAGAAAGAAPGEEDLCAAFNVICDNVGKDWRRLARQLKVSDTKIDSIEDRYPRNLTERVRESLRIWKNTEKENATVAHLVGALRSCQMNKVADLVQEVQQARDLQNRSGAMSPMSWNSDASTSEAS [L172K], for which the “effect of a mutation on the interaction” value was “disrupting interaction”. For MDPFLVLLHSVSSSLSSSELTELKFLCLGRVGKRKLERVQSGLDLFSMLLEQNDLEPGHTELLRELLASLRRHDLLRRVDDFEAGAAAGAAPGEEDLCAAFNVICDNVGKDWRRLARQLKVSDTKIDSIEDRYPRNLTERVRESLRIWKNTEKENATVAHLVGALRSCQMNLVAKLVQEVQQARDLQNRSGAMSPMSWNSDASTSEAS [D175K], the “effect of a mutation on the interaction” value is listed as “disrupting interaction”.

Source of the values: IntAct's records for PubMed 20935634.
